Source: patent US20240207377A1

Target: Recombinant Human TACE/ADAM17 (930-ADB, R&D Systems) (human) (UniProt P78536)
Assay: cell-based or functional assay

Sequence of UniProt P78536 (P78536 215-671 limits assumed): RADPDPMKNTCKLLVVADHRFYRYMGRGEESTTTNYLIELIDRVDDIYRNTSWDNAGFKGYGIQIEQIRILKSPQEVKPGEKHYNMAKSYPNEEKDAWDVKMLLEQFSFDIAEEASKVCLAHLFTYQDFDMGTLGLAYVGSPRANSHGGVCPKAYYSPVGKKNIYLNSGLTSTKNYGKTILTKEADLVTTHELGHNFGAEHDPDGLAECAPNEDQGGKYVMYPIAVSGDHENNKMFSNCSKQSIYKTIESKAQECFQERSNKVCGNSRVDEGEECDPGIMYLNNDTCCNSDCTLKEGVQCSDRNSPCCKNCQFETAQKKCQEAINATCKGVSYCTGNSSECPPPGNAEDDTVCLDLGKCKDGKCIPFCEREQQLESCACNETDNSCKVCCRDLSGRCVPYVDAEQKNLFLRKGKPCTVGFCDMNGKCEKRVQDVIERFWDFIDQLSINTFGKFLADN

- TACE activity in a cell-free assay (fluorogenic peptide substrate Mca-PLAQAV-Dpa-RSSSR-NH2), IC50: 15.3 µM
Substance: human alpha-1-antitrypsin (AAT) (Sigma Aldrich, batch A6150) (from UniProt P01009 25-418)
